According to patent US20210292393A1:
Substitutions are numbered along the chain they refer to. Several values for one entry are separate records, joined by “and”; a condition that tells them apart may be missing. Equal entries are not always repeated.

Assays:
Settings in all cases: remark: other sources report otherwise
[1] = target: SARS-CoV-2 full length spike protein, V483A mutant, expressed on the surface of CHO cells (SARS-CoV-2), P0DTC2
[2] = target: SARS-CoV-2 full length spike protein, V483A mutant (SARS-CoV-2), P0DTC2
[3] = target: SARS-CoV-2 full length spike protein, D614G mutant (SARS-CoV-2), P0DTC2
[4] = target: SARS-CoV-2 full length spike protein, V367F mutant (SARS-CoV-2), P0DTC2
[5] = target: SARS-CoV-2 full length spike protein, V483A mutant, expressed on CHO cells (SARS-CoV-2), P0DTC2
[6] = target: SARS-CoV-2 full length spike protein, D614G mutant, expressed on CHO cells (SARS-CoV-2), P0DTC2
[7] = target: SARS-CoV-2 full length spike protein, V367F mutant, expressed on CHO cells (SARS-CoV-2), P0DTC2

B1: antibody 315 (antibody, V domains shown)
VH: QVQLVQSGSELKKPGASVKLSCQASGYSFTNHAMNWVRQAPGQGLEWMGWINTNTGNPTYAQGFTGRFVFSLDTSVSTTYLHISSLKAEDTAVYYCARASARPGVATNLDFWGQGTLVVVSS
VL: DIQMTQSPSSLSASVGDRVTITCRASQNIDNYLNWYQQKPGKAPKLLIYAASRLHSGVPSRFSGSGSGTDFTLIISSLQPEDLATYYCQQSYSNPLTFGPGTKVDIR
Question: How did the median fluorescence intensity, fold over isotype control (fold over isotype) [1] turn out when B1 was run?
Answer: Its median fluorescence intensity, fold over isotype control (fold over isotype) is 8.39.

B2: antibody 521 (antibody, V domains shown)
VH: QVQLVESGGGVVQPGRSLRLSCAASGFTFSSYGMHWVRQAPGKGLEWVAVIWYDGSNKYYADSVKGRFTISRDNSKNTLYLQMNSLRAEDTAVYYCAREGNDYGDYGEWELLGYFDYWGQGTLVTVSS
VL: SYELTQPPSVSVSPGQTARITCSGDALPKKYAYWYQQKSGQAPVLVIYEDSKRPSGIPERFSGSSSGTMATLTISGAQVEDEADYYCYSTDSSGNHRRVFGGGTKLTVL
Question: For B2, which median fold over isotype (fold over isotype) [2] is on record?
Answer: The median fold over isotype (fold over isotype) was 2.72 and 5.78.

Question: And the median fold over isotype (fold over isotype) [3]?
Answer: Its median fold over isotype (fold over isotype) is 2.68.

Question: And the median fold over isotype (fold over isotype) [4]?
Answer: The median fold over isotype (fold over isotype) was 1.68.

B3: antibody 495 (antibody, V domains shown)
VH: QITLKESGPTLVKPTQTLTLTCTFSGFSLSTSGVGVGWIRQPPGKALEWLALIYWDDDKRYSPSLKSRLTITKDTSKNQVVLIMTNMDPVDTATYYCAHRDSSSWFDLDAFDIWGQGTMVIVSS
VL: QSVLTQPPSVSEAPRQRVTISCSGSSSNIGNNAVNWYQQLPGKAPKLLIYYDDLLPSGVSDRFSGSKSGTSASLAISGLQSEDEADYYCAAWDDRLNGPVFGGGTKLTVL
Question: What does the source list for B3?
Answer: median fluorescence intensity, fold over isotype control (fold over isotype) [5]: 3.47 and 1.65; median fluorescence intensity, fold over isotype control (fold over isotype) [6]: 1.43; median fluorescence intensity, fold over isotype control (fold over isotype) [7]: 3.82

B4: antibody 269 (antibody, V domains shown)
VH: QLQLQESGPGLVKPSETLSLTCTVSGGSISSSSYYWGWIRQPPGKGLEWIGNIYYSGSTYYNPSLKSRVTISVDTSKNQFSLKLSSVTAADTAVYYCAGEELDIVATIYSSRYYYYGMDVWGQGTTVTVSS
VL: QSALTQPASVSGSPGQSITISCTGTSSDVGGYNYVSWYQQHPGKAPKLMIYEVSNRPSGVSNRFSGSKSGNTASLTISGLQAEDEADYYCSSYTSTSTLVFGGGTKLTVL
Question: What does the source list for B4?
Answer: median fluorescence intensity, fold over isotype control (fold over isotype) [2]: 22.8 and 11.6; median fluorescence intensity, fold over isotype control (fold over isotype) [4]: 25.4

B5: antibody 279 (antibody, V domains shown)
VH: EVQLLESGGGLVQPGGSLRLSCAASGFTFSSYAMSWVRQAPGKGLEWVSTISGSGGNTYYADSVKGRFTISRDNSKNTLYLQMNSLRAEDTAVYYCAKDLFQGLYYGSGEFDYWGQGTLVTVSS
VL: B4 VL with G31A, E52G, T96S, L99R, G103T, L107V
Question: How did the median fluorescence intensity, fold over isotype control (fold over isotype) [2] turn out when B5 was run?
Answer: The median fluorescence intensity, fold over isotype control (fold over isotype) was 11.8 and 8.2.

Question: What about the median fluorescence intensity, fold over isotype control (fold over isotype) [4] of the same binder?
Answer: The median fluorescence intensity, fold over isotype control (fold over isotype) was 13.4.

B6: antibody 325 (antibody, V domains shown)
VH: QVQLQESGPGLVKPSQTLSLTCTVSGGSISGGGYYWSWIRQHPGKGLEWIGYIYYSGSTYYNPSLQSRVTISVDTSKNQFSLKLSSVTAADTAVYYCARVGTSSVWYFDYWGQGTLVTVSS
VL: QSALTQPRSVSGSPGQSVTISCTGTSSDVGGYNYVSWYQQHPGKAPKLMIYDVTKRPSGVPDRFSGSKSGNTASLTISGLQAEDEADYYCSSYAGSWVFGGGTKLTVL
Question: With B6 as the binder, how does the median fluorescence intensity, fold over isotype control (fold over isotype) [1] read?
Answer: Its median fluorescence intensity, fold over isotype control (fold over isotype) is 1.17.

B7: antibody 322 (antibody, V domains shown)
VH: EVQLVESGGGLVQPGGSLRLSCAASGFTFSSYWMSWVRQAPGKGLEWVANIKQDGSEKYYVDSVKGRFTISRDNAKNSLYLQMNSLRAEDTAVYYCARDEDVAAALDYWGQGTLVTVSS
VL: SYVLTQPPSVSVAPGKTARITCGGNNIGSKSVHWYQQKPGQAPVLVIYYDSDRPSGIPERFSGSNSGNTATLTISRVEAGDEADYYCQVWDSSSDHPERVFGGGTKLTVL
Question: With B7 as the binder, how does the median fluorescence intensity, fold over isotype control (fold over isotype) [1] read?
Answer: The median fluorescence intensity, fold over isotype control (fold over isotype) was 4.95.

B8: antibody 362 (antibody, V domains shown)
VH: QVQLVESGGGVVQPGRSLRLSCAASGFNLSNYAMHWVRQASGKGLEWVSLISYDGSVKYYTDSVKGRFTVSGDNSKNTLFLQMNSLRPDDSALYYCVRGGVSGPNSFDMWGQGTTVTVSS
VL: DVVMTQSPLSLPVTLGQPATISCRSSQSLVYSDGNTYVNWFQQRPGQSPRRLIYQVSIRASGVPDRFSGSGSGTDFALKISRVEAEDVGVYYCMQGTHWPVTFGQGTKVEIK
Question: With B8 as the binder, how does the median fluorescence intensity, fold over isotype control (fold over isotype) [1] read?
Answer: Its median fluorescence intensity, fold over isotype control (fold over isotype) is 10.3.

B9: antibody 499 (antibody, V domains shown)
VH: EVQLVESGGGLVKPGGSLRLSCAASGFTFSSYSMNWVRQAPGKGLEWVSSISSSSSYIYYADSVKGRFTISRDNAKNSLYLQMNSLRAEDTAVYYCARAPAGIVVGPDYWGQGTLVTVSS
VL: NFMLTQPHSVSESPGKTVTISCTGSSGSIASNYVQWYQQRPGSAPTTVIFEDNQRPSGVPDRFSGSIDSSSNSASLTISGLKTEDEADYYCQSYHSSNPHVVFGGGTKLTVL
Question: What does the source list for B9?
Answer: median fluorescence intensity, fold over isotype control (fold over isotype) [5]: 4.39 and 2.6; median fluorescence intensity, fold over isotype control (fold over isotype) [6]: 4.3; median fluorescence intensity, fold over isotype control (fold over isotype) [7]: 1.18
